The values that follow come from patent publication US20140065163A1.

This assay addresses recombinant marmoset GM-CSF (Callithrix jacchus) (Callithrix jacchus). Kind of assay: cell-based or functional assay.

Sequence of recombinant marmoset GM-CSF (Callithrix jacchus) (Callithrix jacchus) (chain, as listed by the source limits assumed, form in doubt): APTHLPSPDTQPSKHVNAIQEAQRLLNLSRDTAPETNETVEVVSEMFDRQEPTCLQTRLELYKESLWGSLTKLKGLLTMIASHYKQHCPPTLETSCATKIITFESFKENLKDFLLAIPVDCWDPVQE

B1: MSB0010603 4K21 (4K21 hVH S56V-T62S hVL N28I-H34S-N53R-H93Y) (antibody, V domains shown)
VH: EVQLVESGGGLVQPGGSLRLSCAASGFAFSAYDMSWVRQAPGKRLELVAYISSGGSVFYYPDSVKGRFTISRDNAKNSLYLQMNSLRAEDTAVYYCTRHLGFDYWGQGTLVTVSS
VL: DIVMTQSPLSLPVTPGEPASISCRSSQSLVNSIGNTYLSWYLQKPGQSPQLLIYKVSRRFSGVPDRFSGSGSGTDFTLKISRVEAEDVGVYYCSQSTYVPPTFGQGTKVEIK
For the molecule B1, the IC50, inhibition of marmoset GM-CSF induced TF-1 proliferation (1.9 nM) is 0.7 nM.

B2: MSB0010599 4K21 (4K21 hVH S55R-T62S hVL N28I-H34S-N53R-H93Y) (antibody, V domains shown)
VH: EVQLVESGGGLVQPGGSLRLSCAASGFAFSAYDMSWVRQAPGKRLELVAYISSGGRSFYYPDSVKGRFTISRDNAKNSLYLQMNSLRAEDTAVYYCTRHLGFDYWGQGTLVTVSS
VL: DIVMTQSPLSLPVTPGEPASISCRSSQSLVNSIGNTYLSWYLQKPGQSPQLLIYKVSRRFSGVPDRFSGSGSGTDFTLKISRVEAEDVGVYYCSQSTYVPPTFGQGTKVEIK
As for B2, the IC50, inhibition of marmoset GM-CSF induced TF-1 proliferation (1.9 nM) was 0.9 nM.

B3: MSB0010602 4K21 (4K21 hVH S55K-T62S hVL S27eY-N28I-H34S-N53R-H93Y) (antibody, V domains shown)
VH: EVQLVESGGGLVQPGGSLRLSCAASGFAFSAYDMSWVRQAPGKRLELVAYISSGGKSFYYPDSVKGRFTISRDNAKNSLYLQMNSLRAEDTAVYYCTRHLGFDYWGQGTLVTVSS
VL: DIVMTQSPLSLPVTPGEPASISCRSSQSLVNYIGNTYLSWYLQKPGQSPQLLIYKVSRRFSGVPDRFSGSGSGTDFTLKISRVEAEDVGVYYCSQSTYVPPTFGQGTKVEIK
Turning to B3, the IC50, inhibition of marmoset GM-CSF induced TF-1 proliferation (1.9 nM) came out at 1.3 nM.

B4: MSB0010595 4K21 (4K21 hVH S56V-T62S hVL S27eY-N28I-H34S-N53R-H93Y) (antibody, V domains shown)
VH: EVQLVESGGGLVQPGGSLRLSCAASGFAFSAYDMSWVRQAPGKRLELVAYISSGGSVFYYPDSVKGRFTISRDNAKNSLYLQMNSLRAEDTAVYYCTRHLGFDYWGQGTLVTVSS
VL: DIVMTQSPLSLPVTPGEPASISCRSSQSLVNYIGNTYLSWYLQKPGQSPQLLIYKVSRRFSGVPDRFSGSGSGTDFTLKISRVEAEDVGVYYCSQSTYVPPTFGQGTKVEIK
Regarding B4, the IC50, inhibition of marmoset GM-CSF induced TF-1 proliferation (1.9 nM) came to 1.5 nM.

B5: MSB0010601 4K21 (4K21 hVH S55K-T62S hVL N28I-H34S-N53R-H93Y) (antibody, V domains shown)
VH: EVQLVESGGGLVQPGGSLRLSCAASGFAFSAYDMSWVRQAPGKRLELVAYISSGGKSFYYPDSVKGRFTISRDNAKNSLYLQMNSLRAEDTAVYYCTRHLGFDYWGQGTLVTVSS
VL: DIVMTQSPLSLPVTPGEPASISCRSSQSLVNSIGNTYLSWYLQKPGQSPQLLIYKVSRRFSGVPDRFSGSGSGTDFTLKISRVEAEDVGVYYCSQSTYVPPTFGQGTKVEIK
Take B5: the IC50, inhibition of marmoset GM-CSF induced TF-1 proliferation (1.9 nM) worked out at 0.7 nM.

B6: MSB0010600 4K21 (4K21 hVH S55R-T62S hVL S27eY-N28I-H34S-N53R-H93Y) (antibody, V domains shown)
VH: EVQLVESGGGLVQPGGSLRLSCAASGFAFSAYDMSWVRQAPGKRLELVAYISSGGRSFYYPDSVKGRFTISRDNAKNSLYLQMNSLRAEDTAVYYCTRHLGFDYWGQGTLVTVSS
VL: DIVMTQSPLSLPVTPGEPASISCRSSQSLVNYIGNTYLSWYLQKPGQSPQLLIYKVSRRFSGVPDRFSGSGSGTDFTLKISRVEAEDVGVYYCSQSTYVPPTFGQGTKVEIK
With B6, the IC50, inhibition of marmoset GM-CSF induced TF-1 proliferation (1.9 nM) was 2 nM.
